System: aleurone cell development
Experiment: Chemical genetics with in vitro cultured endosperm expressing Ltp2-driven ZsYellow in aleurone cells
Format: cell-based, maize
Settings: in vitro endosperm cultures in liquid proliferation medium, 96 well plates; predicted result
Procedure: In vitro cultured endosperm produced by the methods of the present invention and that express the ZsYellow fluorescent protein in aleurone cells under the control of the Ltp2 promoter are plated in 96 well microtiter plates with one endosperm added per well in liquid proliferation medium. To each well, a candidate chemical to be evaluated is added. The effect of the chemical on aleurone cell development is evaluated, for example, as the loss of aleurone cell identity as detected as lack of yellow fluorescence, either on the whole surface of the in vitro cultured endosperm or in patches on the surface. For example, a chemical genetics approach can be used to assess the function of the Dek1 gene product. The defective kernel 1 (dek1) gene is required for aleurone cell development in the endosperm of maize grains and this gene encodes a membrane protein of the calpain gene superfamily (Lid et al. (2002) Proc. Natl. Acad. Sci. USA. 99(8):5460-5465). Using mutant sector analysis, it has been shown that, if an aleurone cell looses the Dek1 gene function, the cell loses its aleurone cell identity and converts to a starchy endosperm cell fate (Becraft et al. (2000) Development 127:4039-4048). n this example, in vitro endosperm cultures are exposed to the calpain inhibitor calpastatin by the method described above.

B1: calpastatin (protein, UniProt P20810 1-708, looked up)
Calpastatin: MNPTETKAIPVSQQMEGPHLPNKKKHKKQAVKTEPEKKSQSTKLSVVHEKKSQEGKPKEHTEPKSLPKQASDTGSNDAHNKKAVSRSAEQQPSEKSTEPKTKPQDMISAGGESVAGITAISGKPGDKKKEKKSLTPAVPVESKPDKPSGKSGMDAALDDLIDTLGGPEETEEENTTYTGPEVSDPMSSTYIEELGKREVTIPPKYRELLAKKEGITGPPADSSKPIGPDDAIDALSSDFTCGSPTAAGKKTEKEESTEVLKAQSAGTVRSAAPPQEKKRKVEKDTMSDQALEALSASLGTRQAEPELDLRSIKEVDEAKAKEEKLEKCGEDDETIPSEYRLKPATDKDGKPLLPEPEEKPKPRSESELIDELSEDFDRSECKEKPSKPTEKTEESKAAAPAPVSEAVCRTSMCSIQSAPPEPATLKGTVPDDAVEALADSLGKKEADPEDGKPVMDKVKEKAKEEDREKLGEKEETIPPDYRLEEVKDKDGKPLLPKESKEQLPPMSEDFLLDALSEDFSGPQNASSLKFEDAKLAAAISEVVSQTPASTTQAGAPPRDTSQSDKDLDDALDKLSDSLGQRQPDPDENKPMEDKVKEKAKAEHRDKLGERDDTIPPEYRHLLDDNGQDKPVKPPTKKSEDSKKPADDQDPIDALSGDLDSCPSTTETSQNTAKDKCKKAASSSKAPKNGGKAKDSAKTTEETSKPKDD
**Q.** For B1, which “effect on aleurone cell identity (yellow fluorescence on endosperm surface)” value is on record?
**A.** The value was “lack of fluorescence in spot on the surface”.

Source: patent US20060123518A1, “Methods for culturing cereal endosperm” (Pioneer Hi-Bred International, Inc., priority 2004, published 2006)
